Results taken from the supplement of paper PMC12764529.
± gives the half width of the 95% confidence interval.

Legend:
[1] = folding stability dG unfold from chymotrypsin proteolysis; higher = more stable
How it was run: (§1)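 Digests were run with trypsin and chymotrypsin at 11 concentrations in threefold dilutions, plus a no-protease condition, on designed mini-proteins in a PA-tagged cDNA display construct. The mini-proteins were under 80 residues, had no cysteine, and were kept only when AlphaFold2 dimer inter-PAE was above 15. After sequencing, Bayesian fitting of the counts gave K50, from which unfolding free energy was derived against a sequence-predicted unfolded-state K50 and a shared folded-state K50, per protease or combined.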

[2] = folding stability dG unfold from trypsin proteolysis; higher = more stable
How it was run: as §1

[3] = folding stability dG unfold (combined trypsin and chymotrypsin); higher = more stable
How it was run: as §1

Sequence	folding stability dG unfold [1] [kcal/mol]	folding stability dG unfold [2] [kcal/mol]	folding stability dG unfold [3] [kcal/mol]
SAGGKYKIEIEITEIKEKEDGTKEITIKIKIYDEETGELIYTITVKMRIDKKTNKIIIEEVKIEKLPPSAGG [r13_596_TrROS_Hall]	6 ± 0.36	4.22 ± 0.29	> 6
SAGGDTVTTTETFPEKPILTVTTTSFSPSGTTTTTTTTYEVENGKIVSKLSTTTTTTAVAPAPPGTASAGGS [r16_682_JUSTAS]	1.05 ± 0.024	0.71 ± 0.034	0.941 ± 0.036
SAGPGWIMIRVKIKMRKWKDGKPVRRPIEIPIMAPADGDPEAARRKAEELAEFLAQMYGMEIEDVEIFPSAG [r5_497_TrROS]	3.74 ± 0.057	3.07 ± 0.092	3.55 ± 0.065
SAGGSAGGSKKTVLVRITVTLPNGEKREIELEVEVDSVEDLKELLKKLPLPPGMKVTIEVVPASAGGSAGGS [r20_162_TrROS_Hall]	3.4 ± 0.2	4.48 ± 0.31	4.16 ± 0.31
SKTIMFQFDSIEEIKDFIKEAIDDGDPDQKIRIEWYPPGGRRQEHEIESPEDIIDFLENGPYWIRVEIEPSA [r9_589_TrROS]	2.16 ± 0.047	1.68 ± 0.052	2.05 ± 0.12
SAGGSAGGSAGGKKVKITVVLEFDGVLLVAEAEIEFDENGKIVEIKVKVELFPAPEEGEESAGGSAGGSAGG [r7_135_TrROS_Hall]	2.39 ± 0.18	3.21 ± 0.36	2.96 ± 0.48
SASPEDTVTTTETEPTTISLGTASIPPDLEVLSVTVTTTTTTTYKVEPPGVPVKLSSTTTTTTTVTLKRTSA [r9_747_JUSTAS]	2.45 ± 0.1	2.79 ± 0.3	2.69 ± 0.38
SAGGSAGGSAGGDSMSYDPKLVEEPVVEVFDGPVLVRVTEVTLPNGKKLTTTEELPPGLESAGGSAGGSAGG [r7_846_JUSTAS]	0.796 ± 0.05	-0.436 ± 0.17	0.546 ± 0.09
SSLSIPGATKEEFEEIAEELEKKNPGVKVTVTYDPENGVITITITKPVKDKKGNLIGTETEVITITVTKPSA [r9_378_JUSTAS]	2.26 ± 0.072	3.05 ± 0.41	2.41 ± 0.14
SAGGSAGGSGPELRPPDVPSTTVPLKVSPEEAKEILKELLGLPEDVEVPFGSIDPATGVITLVSAGGSAGGS [r12_815_JUSTAS]	0.881 ± 0.042	1.25 ± 0.091	1.03 ± 0.12
SAVIPLEELARKVAEELGLEPVEVLEVIPEEGVVVMRFEGAVIVVKVDPETGEAEVEIVVFDPETGKPVSAG [r14_270_TrMRF]	3.35 ± 0.063	2.82 ± 0.11	3.16 ± 0.085
SAGGEKEYVEVTLEIEIEIELEPGESAEEIARKLAEELGAEITEVRVERLPDGTVKITVTVRVKLPPSAGGS [r8_292_TrROS_Hall]	2.58 ± 0.2	3.3 ± 0.29	2.98 ± 0.35
SAGGSAGGMIPVKTTETTTLPDGSTVVTESLTIIDPTSNTSTTTTLKTTIINTSTGTTIPPSSLSAGGSAGG [r6_866_JUSTAS]	0.319 ± 0.073	1.38 ± 0.032	1 ± 0.079
SAVINIEAWFPPGKSVEEAVDEAKNIIHQFGFEIDDVDVERDPNGWVRVDFTIKIKPPMPPEQRKKLQDSAG [r14_110_TrROS]	2.91 ± 0.091	1.25 ± 0.051	2.45 ± 0.26
SAGGSAGGSAGKPVLKLTVTLPNGLTVTVTINPDGEITVEIRPLPPPPPPVRTYSDEELKSAGGSAGGSAGG [r11_1015_TrROS_Hall]	2.75 ± 0.16	2.29 ± 0.19	2.1 ± 0.31
SAGASPGVRLTERSEEVIEVEPGEKEKLKEEIKKSEKKYPGGLTEKVEYEVDPNSNKVTITITTTTGLSAGG [r19_45_JUSTAS]	0.664 ± 0.084	-0.351 ± 0.23	0.383 ± 0.33
SAGMPAGDFEPVKVEYTIKIPILNEGGGAAAPMPIKVKVEVYRMPNGNLFIKFEIEIPGGNKIEFWFPISAG [r5_580_TrROS]	4.32 ± 0.13	2.67 ± 0.28	3.99 ± 0.26
SAGGSAGGSALPLPPDQRLYVFRDPEGDLYLVRFEDGSEVRTSLKAEDLEKLGVPVVDIGDLSAGGSAGGSA [r18_125_TrMRF]	1.49 ± 0.037	1.73 ± 0.035	1.66 ± 0.032
SAGGSAGGSAGSVTITRDYPTPDGTRTTVTITFPSLERSPSVKYKLVSVSPDGNYVLSPESAGGSAGGSAGG [r11_733_JUSTAS]	1.61 ± 0.17	2.11 ± 0.18	1.91 ± 0.28
SAGGSAGGSVKVYTIEFLGDGKPYLLSIDDNGNFVIYVPNPKNIDAVKKAIPSNYKIVEIKPLSAGGSAGGS [r12_9_TrMRF]	2.01 ± 0.13	0.989 ± 0.036	1.52 ± 0.17
SAGGSAGGAEVVKVDPKPAGVTTVLERYPDGTLRLLKETEENGKLTVSEVETIPVPDISKPPLLSAGGSAGG [r6_836_JUSTAS]	0.164 ± 0.066	-0.198 ± 0.075	0.0779 ± 0.11

Sequence	folding stability dG unfold [1] [kcal/mol]	folding stability dG unfold [2] [kcal/mol]	folding stability dG unfold [3] [kcal/mol]
SAGGSAKKKEKKVEKKVITIEVEPGVKTPEEMLEAIRKLKEEYPDTKIIIKASDEQKEALKRLLKESAGGSA [r15_89_TrROS_Hall]	0.879 ± 0.14	0.669 ± 0.16	0.767 ± 0.3
SAGGPVVTTTTEYDPSTGKTYTVTTVPGSATQTTTYTLPDGTVLTTTTTVSPTTGGVTSTTPTTTPVPASAG [r5_587_JUSTAS]	1.31 ± 0.089	1.3 ± 0.046	1.39 ± 0.061
SAGGSAGGSAGAKKLPPGQVALRIEPVTVTVTDEDGKERTVTRIRLVDAATGEEYEFTFPSAGGSAGGSAGG [r17_266_TrROS_Hall]	0.531 ± 0.1	0.829 ± 0.1	0.744 ± 0.15
SAGGSMVIRVETPEEAEEAARELAERLRELFPEVKELEIKVKVEVVDEETGEEKEYEFTIKLKLPPSAGGSA [r2_393_TrROS_Hall]	2.62 ± 0.098	2.54 ± 0.12	2.62 ± 0.24
NINPEFMEKIVNEIANRMNQQGWKIKKVDIEPYPNGMIDIKVNGREIEFPWPNGRWFRIKVEAKRVPPEQRS [r1_31_TrROS]	2.87 ± 0.076	1.93 ± 0.027	2.41 ± 0.076
SAGGSAGGSAGMDKDGKWRRIPFMFVNPGDGYIFKWEIWIYPGGNIELEMEIIGPIKPGASAGGSAGGSAGG [r11_226_TrROS]	4.8 ± 0.061	3.13 ± 0.13	4.28 ± 0.11
SAGGSAGGMPVEVTETPVGTFPDGSTVTRTETVLPGGEVLVETTVTYPDGSSTTTTRRVPPELASAGGSAGG [r6_263_JUSTAS]	2.41 ± 0.059	2.39 ± 0.084	2.43 ± 0.092
SAGGSAGGVKIEVETRTETLPDGSTRTVMRVKIELPAPPPPPPPPTRTVTETTEDGETRTTTVRSAGGSAGG [r6_778_TrROS_Hall]	2.07 ± 0.066	0.626 ± 0.13	1.64 ± 0.17
SAGGSAVSISTVTSTSFPGSGTSVKTYETPDFTVTVTTTRDPNGADTVEIHTDDPEAEKTVREYLASAGGSA [r15_42_JUSTAS]	-0.348 ± 0.28	0.601 ± 0.049	0.337 ± 0.14
SAGGSAAKITEVEVEELEDGEVLIRVKVKPEDIDALLELAKKLPEENIELVEKREDGYYVLRIKRPSAGGSA [r15_386_TrROS_Hall]	1.87 ± 0.16	1.53 ± 0.043	1.67 ± 0.15
SAGGSAGIEERLKKLAEELGLEVKVTKVEVKVDGKEEVVVEVEVEPPPPPVEVKELSEEERKKAEESAGGSA [r15_256_TrROS_Hall]	0.99 ± 0.19	1.27 ± 0.21	1.13 ± 0.23
SAGSPSIVRTPSLTYDPDPRNPSTPRLRQASVTATNPNGETITFTFTSLEDMDAALNAWIAANPELLSSAGG [r19_123_JUSTAS]	1.74 ± 0.089	0.59 ± 0.11	1.38 ± 0.08
SAGGSAGGSKVFTVEELENMTPEEIRALIKKSKKPVIIVAKSEEEKKRAAELLKELGVEVKVLSAGGSAGGS [r12_97_TrROS_Hall]	3.6 ± 0.057	3.73 ± 0.12	3.7 ± 0.11
SAGGMTTTTTTYTIQLPNGETLTITITTTTLPGGITVTIPIGGTSPDQIAIAKELAEKLAAEIKEAASAGGS [r8_416_JUSTAS]	3.83 ± 0.1	2.89 ± 0.096	3.55 ± 0.11
SAEVETVTLELELPEDGYRVTITVTYNKETGEVTVEIRIINPNGEEKTITIKVKSLEEALKKLEFKLLPSAG [r14_749_TrROS_Hall]	2.45 ± 0.054	2.13 ± 0.056	2.36 ± 0.13
SAGGSAMVMITIKIKFPGNEVEINMPAEDLDELLSHPELGDNFEITEIEVMPIPPPPVDPEQAEEKSAGGSA [r15_460_TrROS]	0.885 ± 0.11	1.21 ± 0.15	1.03 ± 0.24
SAGGSAGGSAGMAEKLPSLSLFYLPETGDLVLIREETYVDPNDPDKSIVKQEIYVLPPEYSAGGSAGGSAGG [r17_241_TrMRF]	1.74 ± 0.13	0.984 ± 0.051	1.51 ± 0.096
SAGMKPLSDPEAQELAKEVAEKGYLVYTLKYPDGTVITVVSKSEEEVEALLEKSPYPIKEIVIIPPEKPSAG [r5_481_JUSTAS]	1.74 ± 0.098	1.16 ± 0.082	1.48 ± 0.12
SAGGMIEVFVEGLTLEETLRRLAEEYPDVPEVVVFFPDGTAVFFRRDGDEVEVVEVVPVGPVAPDELSAGGS [r8_225_TrMRF]	3.118 ± 0.017	2.59 ± 0.068	2.93 ± 0.061
SPSTTVETTVTIPYTYRLPDGTVLEYNLTISVTASLTNGGISTGDLKSAIDTALAAANIPPGPPDLPLLLRS [r1_175_JUSTAS]	2.31 ± 0.098	0.738 ± 0.13	1.83 ± 0.096
SAGGSAGGSGGMMPVTLTITPVNPPGASTSSTTIPVNFTSPEEAAAAKEKIAAELPSNATVTGSAGGSAGGS [r20_211_JUSTAS]	-1.1 ± 0.4	0.442 ± 0.0095	0.0375 ± 0.072
